Measurements reported in PMC6555819, “Comprehensive study of nuclear receptor DNA binding provides a revised framework for understanding receptor specificity”.
Residue numbers refer to the chain shown, from its start.

B1: NRC3_wobSeed141_DR5_C6G_o1 (dsDNA)
DNA 1: GCAGTGAAAGTTCAGGACGAGGTAACGTAAAGCACGGCGATTGACAGCGTAGAATGAAGG
DNA 2: CCTTCATTCTACGCTGTCAATCGCCGTGCTTTACGTTACCTCGTCCTGAACTTTCACTGC
B2: NRC3_wobSeed117_DR4_A9C_o1 (dsDNA)
DNA 1: GCCGTCAACGTTCAACTAAGGTAACGTAAAGCACGCGCGATTGACAGCGTAGAATGAAGG
DNA 2: CCTTCATTCTACGCTGTCAATCGCGCGTGCTTTACGTTACCTTAGTTGAACGTTGACGGC
B3: NRC3_random_hg19_246_o1 (dsDNA)
DNA 1: GCCTCCAGACTGCCTTCAGATTCAAGACGCAAAGGCGCGATTGACAGCGTAGAATGAAGG
DNA 2: CCTTCATTCTACGCTGTCAATCGCGCCTTTGCGTCTTGAATCTGAAGGCAGTCTGGAGGC
B4: NRC3_random_hg19_56_o1 (dsDNA)
DNA 1: GCTGTGCCTTCTGCACAAGGTAGGTCTACATCCACTGCGATTGACAGCGTAGAATGAAGG
DNA 2: CCTTCATTCTACGCTGTCAATCGCAGTGGATGTAGACCTACCTTGTGCAGAAGGCACAGC
B5: NRC3_wobSeed66_DR2_A14G_o1 (dsDNA)
DNA 1: GCAATACAGGGTCGCTAGGCCAGAGTAGGTACGAATGCGATTGACAGCGTAGAATGAAGG
DNA 2: CCTTCATTCTACGCTGTCAATCGCATTCGTACCTACTCTGGCCTAGCGACCCTGTATTGC
B6: NRC3_wobSeed53_DR2_T12C_o1 (dsDNA)
DNA 1: GCCCTTACGGGCCACGAGGTTATAGCACGACGAGCGGCGATTGACAGCGTAGAATGAAGG
DNA 2: CCTTCATTCTACGCTGTCAATCGCCGCTCGTCGTGCTATAACCTCGTGGCCCGTAAGGGC
B7: NRC3_random_hg19_170_o1 (dsDNA)
DNA 1: GCCTTGCATTGTGGTTTGGATTTGCATTTCCCTAAAGCGATTGACAGCGTAGAATGAAGG
DNA 2: CCTTCATTCTACGCTGTCAATCGCTTTAGGGAAATGCAAATCCAAACCACAATGCAAGGC
B8: NRC3_random_hg19_208_o1 (dsDNA)
DNA 1: GCAAGAGAGAGACACAATGGCTAAAGAAGGAAGAGTGCGATTGACAGCGTAGAATGAAGG
DNA 2: CCTTCATTCTACGCTGTCAATCGCACTCTTCCTTCTTTAGCCATTGTGTCTCTCTCTTGC
B9: NRC3_wobSeed58_DR2_T12G_o1 (dsDNA)
DNA 1: GCATCGAAAGGGCGTGAGGTGAGTATACAGAAAGGCGCGATTGACAGCGTAGAATGAAGG
DNA 2: CCTTCATTCTACGCTGTCAATCGCGCCTTTCTGTATACTCACCTCACGCCCTTTCGATGC
B10: NRC3_wobSeed65_DR2_T12A_o1 (dsDNA)
DNA 1: GCATATGTAGGATATCGGGTCATTCAGTTTGCGCATGCGATTGACAGCGTAGAATGAAGG
DNA 2: CCTTCATTCTACGCTGTCAATCGCATGCGCAAACTGAATGACCCGATATCCTACATATGC
B11: NRC3_random_hg19_462_o1 (dsDNA)
DNA 1: GCCTGCTGCTTTCCTGATTACTGTAGCATCAGGTACGCGATTGACAGCGTAGAATGAAGG
DNA 2: CCTTCATTCTACGCTGTCAATCGCGTACCTGATGCTACAGTAATCAGGAAAGCAGCAGGC
B12: NRC3_wobSeed137_DR5_G21A_o1 (dsDNA)
DNA 1: GCATATGTAGGTTACATCCGAGTCATTCAGGCTATGGCGATTGACAGCGTAGAATGAAGG
DNA 2: CCTTCATTCTACGCTGTCAATCGCCATAGCCTGAATGACTCGGATGTAACCTACATATGC
B13: NRC3_wobSeed28_DR1_A21T_o1 (dsDNA)
DNA 1: GCCCTACTGGGCCAAAGGTCTTTGATTCCAATGCTCGCGATTGACAGCGTAGAATGAAGG
DNA 2: CCTTCATTCTACGCTGTCAATCGCGAGCATTGGAATCAAAGACCTTTGGCCCAGTAGGGC
B14: NRC3_wobSeed2_DR0_C19A_o1 (dsDNA)
DNA 1: GCCCTAGTTGGTCAAGGTAACACACGCTATAGGTACGCGATTGACAGCGTAGAATGAAGG
DNA 2: CCTTCATTCTACGCTGTCAATCGCGTACCTATAGCGTGTGTTACCTTGACCAACTAGGGC
B15: NRC3_wobSeed18_DR0_T12G_o1 (dsDNA)
DNA 1: GCGATACAGGGGCAAGGCCAGAGTACGCGTATTGATGCGATTGACAGCGTAGAATGAAGG
DNA 2: CCTTCATTCTACGCTGTCAATCGCATCAATACGCGTACTCTGGCCTTGCCCCTGTATCGC
B16: NRC3_wobSeed93_DR3_A14T_o1 (dsDNA)
DNA 1: GCAGTCAAAGTTCTTCTAGGTAACGTAAGATATGCTGCGATTGACAGCGTAGAATGAAGG
DNA 2: CCTTCATTCTACGCTGTCAATCGCAGCATATCTTACGTTACCTAGAAGAACTTTGACTGC
B17: NRC3_random_hg19_215_o1 (dsDNA)
DNA 1: GCTGTGGTCCCAAACACCTCAAGCATGACAATGCGTGCGATTGACAGCGTAGAATGAAGG
DNA 2: CCTTCATTCTACGCTGTCAATCGCACGCATTGTCATGCTTGAGGTGTTTGGGACCACAGC
B18: NRC3_random_hg19_463_o1 (dsDNA)
DNA 1: GCCAGGGAGAGAGCCTTGCAAAGATGGAACAATCAGGCGATTGACAGCGTAGAATGAAGG
DNA 2: CCTTCATTCTACGCTGTCAATCGCCTGATTGTTCCATCTTTGCAAGGCTCTCTCCCTGGC
B19: NRC3_random_hg19_42_o1 (dsDNA)
DNA 1: GCTTTGTGTGGGCTGTCATTGGATGCTCTGGTCATGGCGATTGACAGCGTAGAATGAAGG
DNA 2: CCTTCATTCTACGCTGTCAATCGCCATGACCAGAGCATCCAATGACAGCCCACACAAAGC
B20: NRC3_wobSeed99_DR4_C23G_o1 (dsDNA)
DNA 1: GCTCTCGGAGGACACGAAAGGTGAGAGCTCGACATCGCGATTGACAGCGTAGAATGAAGG
DNA 2: CCTTCATTCTACGCTGTCAATCGCGATGTCGAGCTCTCACCTTTCGTGTCCTCCGAGAGC
B21: NRC3_wobSeed72_DR2_T24C_o1 (dsDNA)
DNA 1: GCTCGAGTAGGTTACGGGGGCATCCAGGGATGAAGAGCGATTGACAGCGTAGAATGAAGG
DNA 2: CCTTCATTCTACGCTGTCAATCGCTCTTCATCCCTGGATGCCCCCGTAACCTACTCGAGC
B22: NRC3_wobSeed72_DR2_G16T_o1 (dsDNA)
DNA 1: B21 DNA 1 with G16T, C24T
DNA 2: B21 DNA 2 with G37A, C45A
B23: NRC3_wobSeed72_DR2_G17C_o1 (dsDNA)
DNA 1: B21 DNA 1 with G17C, C24T
DNA 2: B21 DNA 2 with G37A, C44G
B24: NRC3_random_hg19_342_o1 (dsDNA)
DNA 1: GCATCGGGAGTGATGATAAGTAAGGCAAGCCCTGTTGCGATTGACAGCGTAGAATGAAGG
DNA 2: CCTTCATTCTACGCTGTCAATCGCAACAGGGCTTGCCTTACTTATCATCACTCCCGATGC
B25: NRC3_random_hg19_157_o1 (dsDNA)
DNA 1: GCCCAAGATCTTGCCACTGCACTCCAGCCTGGATGAGCGATTGACAGCGTAGAATGAAGG
DNA 2: CCTTCATTCTACGCTGTCAATCGCTCATCCAGGCTGGAGTGCAGTGGCAAGATCTTGGGC
B26: NRC3_random_hg19_329_o1 (dsDNA)
DNA 1: GCAGGGATGAATAGATCGAAGTTACTGCCCATTCAAGCGATTGACAGCGTAGAATGAAGG
DNA 2: CCTTCATTCTACGCTGTCAATCGCTTGAATGGGCAGTAACTTCGATCTATTCATCCCTGC
B27: NRC3_random_hg19_32_o1 (dsDNA)
DNA 1: GCTGTGTCAGACAGGCAAAGCACTTAAGATTTGTGAGCGATTGACAGCGTAGAATGAAGG
DNA 2: CCTTCATTCTACGCTGTCAATCGCTCACAAATCTTAAGTGCTTTGCCTGTCTGACACAGC
B28: NRC3_random_hg19_338_o1 (dsDNA)
DNA 1: GCACACAGAGAAACTCTTGCCAGTAGCAGTAGTACCGCGATTGACAGCGTAGAATGAAGG
DNA 2: CCTTCATTCTACGCTGTCAATCGCGGTACTACTGCTACTGGCAAGAGTTTCTCTGTGTGC
B29: NRC3_wobSeed34_DR1_G22C_o1 (dsDNA)
DNA 1: GCATCGAAAGGTCGAAGGTGACTATACCCACCCGAAGCGATTGACAGCGTAGAATGAAGG
DNA 2: CCTTCATTCTACGCTGTCAATCGCTTCGGGTGGGTATAGTCACCTTCGACCTTTCGATGC
B30: NRC3_wobSeed113_DR4_G20C_o1 (dsDNA)
DNA 1: GCATATGTAGGTTAGCTGGCGTCATTCAGACTAGGCGCGATTGACAGCGTAGAATGAAGG
DNA 2: CCTTCATTCTACGCTGTCAATCGCGCCTAGTCTGAATGACGCCAGCTAACCTACATATGC
B31: NRC3_random_hg19_343_o1 (dsDNA)
DNA 1: GCCCTGGAGTGTCACTTAGCCACATTCTATTGGCCAGCGATTGACAGCGTAGAATGAAGG
DNA 2: CCTTCATTCTACGCTGTCAATCGCTGGCCAATAGAATGTGGCTAAGTGACACTCCAGGGC

What follows are binders tested against PPARa:RXRa (Homo sapiens, UniProt Q07869;P19793 full;full) (assay: no ligand; PBM; 270 nM : 90 nM RXRa; PBS pH 7.4, 2% milk, 0.02% Triton X-100, 1 mM DTT, BSA, 0.4 mg/ml salmon testes DNA). Details: tags: GST kept;His cleaved; copies: 1;1; label: surface-attached array probe.
PPARa:RXRa, sequence (Q07869 whole entry, chain 1 of 2): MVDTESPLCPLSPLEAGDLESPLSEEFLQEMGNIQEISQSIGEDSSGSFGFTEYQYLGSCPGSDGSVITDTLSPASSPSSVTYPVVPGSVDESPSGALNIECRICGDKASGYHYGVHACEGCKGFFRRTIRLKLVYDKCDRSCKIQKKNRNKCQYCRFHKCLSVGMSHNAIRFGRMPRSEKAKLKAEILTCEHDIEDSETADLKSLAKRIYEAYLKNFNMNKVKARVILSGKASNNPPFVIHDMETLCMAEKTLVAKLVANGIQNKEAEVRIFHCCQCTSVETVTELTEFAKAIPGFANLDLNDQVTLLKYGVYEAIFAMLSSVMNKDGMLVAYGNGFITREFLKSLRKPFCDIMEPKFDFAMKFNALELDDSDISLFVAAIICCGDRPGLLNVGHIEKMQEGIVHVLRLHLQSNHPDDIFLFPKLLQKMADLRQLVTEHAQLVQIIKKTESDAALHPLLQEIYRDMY
PPARa:RXRa, sequence (P19793 whole entry, chain 2 of 2): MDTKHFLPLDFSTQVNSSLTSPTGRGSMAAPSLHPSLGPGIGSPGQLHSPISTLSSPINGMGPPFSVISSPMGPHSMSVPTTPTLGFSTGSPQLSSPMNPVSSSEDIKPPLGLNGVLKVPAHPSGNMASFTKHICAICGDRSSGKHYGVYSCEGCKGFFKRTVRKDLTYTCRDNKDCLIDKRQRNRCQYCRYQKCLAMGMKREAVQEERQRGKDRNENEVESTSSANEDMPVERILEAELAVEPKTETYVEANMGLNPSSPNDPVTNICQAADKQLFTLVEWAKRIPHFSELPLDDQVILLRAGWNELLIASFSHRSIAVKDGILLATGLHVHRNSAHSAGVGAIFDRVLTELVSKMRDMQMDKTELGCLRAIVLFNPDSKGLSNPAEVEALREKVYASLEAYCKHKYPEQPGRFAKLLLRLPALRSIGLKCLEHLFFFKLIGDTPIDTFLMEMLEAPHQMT
How it was run: (§1)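 Ligand-free nuclear receptor dimers were bound for 1 h to custom Agilent 4×180K protein-binding microarrays. Detection used antibodies against each partner (one per run). Binding z-scores rest on regression-normalized fluorescence, with random background probes as the reference.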
For B1, the binding signal was 3.27 PBM z-score against 500 random probes.

The binders below were run against PXR:RXRa (Homo sapiens, UniProt O75469;P19793 full;full) in the same assay as above. Details: tags: His kept;His cleaved; copies: 1;1; label: surface-attached array probe.
PXR:RXRa, sequence (O75469 whole entry, chain 1 of 2): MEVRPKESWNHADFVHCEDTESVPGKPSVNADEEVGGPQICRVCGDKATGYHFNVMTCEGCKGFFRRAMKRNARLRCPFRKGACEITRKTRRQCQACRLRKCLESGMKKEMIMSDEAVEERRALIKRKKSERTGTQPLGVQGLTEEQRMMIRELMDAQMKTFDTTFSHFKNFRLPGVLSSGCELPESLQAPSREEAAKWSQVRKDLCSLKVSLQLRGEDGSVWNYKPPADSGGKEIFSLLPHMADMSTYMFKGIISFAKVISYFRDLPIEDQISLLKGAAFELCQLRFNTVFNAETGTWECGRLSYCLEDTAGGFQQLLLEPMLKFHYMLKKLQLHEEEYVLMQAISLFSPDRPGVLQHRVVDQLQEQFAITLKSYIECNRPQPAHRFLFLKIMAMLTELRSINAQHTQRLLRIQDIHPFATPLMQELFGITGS
PXR:RXRa, sequence (P19793 whole entry, chain 2 of 2): as the sequence (P19793 whole entry, chain 2 of 2) above
How it was run: as §1
In the case of B2, the binding signal is reported as 0.48 PBM z-score against 500 random probes.
B3 was tested, and the binding signal was -0.41 PBM z-score against 500 random probes.
With B4 the binding signal was -0.54 PBM z-score against 500 random probes.
With B5 the binding signal was 0.28 PBM z-score against 500 random probes.
B6 was tested, and the binding signal was 0.44 PBM z-score against 500 random probes.
With B7 the binding signal was 0.34 PBM z-score against 500 random probes.
B8 was tested, and the binding signal was 0.26 PBM z-score against 500 random probes.
In the case of B9, the binding signal is reported as 0.34 PBM z-score against 500 random probes.
For B10, the binding signal was 3.03 PBM z-score against 500 random probes.
B11 was tested, and the binding signal was -0.18 PBM z-score against 500 random probes.
In the case of B12, the binding signal is reported as 0.38 PBM z-score against 500 random probes.
With B13 the binding signal was -0.05 PBM z-score against 500 random probes.
B14 was tested, and the binding signal was 0.48 PBM z-score against 500 random probes.
With B15 the binding signal was -0.01 PBM z-score against 500 random probes.
B16 was tested, and the binding signal was 0.13 PBM z-score against 500 random probes.
B17 was tested, and the binding signal was -0.46 PBM z-score against 500 random probes.
In the case of B18, the binding signal is reported as -0.42 PBM z-score against 500 random probes.
B19 was tested, and the binding signal was 0.44 PBM z-score against 500 random probes.
For B20, the binding signal was 0.4 PBM z-score against 500 random probes.
For B21, the binding signal was 3.05 PBM z-score against 500 random probes.
With B22 the binding signal was 0.31 PBM z-score against 500 random probes.
With B23 the binding signal was 0.24 PBM z-score against 500 random probes.
For B24, the binding signal was -0.7 PBM z-score against 500 random probes.
For B1, the binding signal was 3 PBM z-score against 500 random probes.
For B25, the binding signal was -0.24 PBM z-score against 500 random probes.
B26 was tested, and the binding signal was 0.08 PBM z-score against 500 random probes.
B27 was tested, and the binding signal was -0.5 PBM z-score against 500 random probes.
B28 was tested, and the binding signal was -0.32 PBM z-score against 500 random probes.
For B29, the binding signal was 3.06 PBM z-score against 500 random probes.
In the case of B30, the binding signal is reported as -0.13 PBM z-score against 500 random probes.
For B31, the binding signal was 0.14 PBM z-score against 500 random probes.
